Assay results from PMC9325726.
Where no end group is shown, it is not given here. The star is where a group is joined. αGalNAc = CC(=O)N[C@@H]1[C@@H](O)[C@@H](O)[C@@H](CO)O[C@@H]1*

Target: T1, wild-type AM0627^A21-E506 (Akkermansia muciniphila) (UniProt B2UPI7)
T1 sequence: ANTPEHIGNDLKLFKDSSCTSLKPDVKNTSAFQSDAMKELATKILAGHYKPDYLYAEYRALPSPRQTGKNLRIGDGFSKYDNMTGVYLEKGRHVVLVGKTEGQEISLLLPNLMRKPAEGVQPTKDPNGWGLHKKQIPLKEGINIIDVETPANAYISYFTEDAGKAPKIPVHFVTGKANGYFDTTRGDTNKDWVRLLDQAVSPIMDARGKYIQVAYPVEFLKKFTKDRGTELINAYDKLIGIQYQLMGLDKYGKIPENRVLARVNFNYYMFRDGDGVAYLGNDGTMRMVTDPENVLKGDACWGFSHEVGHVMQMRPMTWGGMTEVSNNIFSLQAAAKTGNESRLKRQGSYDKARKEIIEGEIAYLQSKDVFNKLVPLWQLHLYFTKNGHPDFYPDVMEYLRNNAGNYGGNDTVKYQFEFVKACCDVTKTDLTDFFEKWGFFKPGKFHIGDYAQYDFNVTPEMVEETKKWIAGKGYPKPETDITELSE

cleavage of P2 (500 μM) by 0.4 μM enzyme at 37 °C, MALDI-TOF time course, printed for 5 and 15 min: 35% | specific activity with P2 (500 μM), from the MALDI-TOF time course: 1.2 U/mg
Binder: TEAQT(αGalNAc)T(αGalNAc)PPPA-NH2 [P2, bis-Tn glycopeptide]
